Measurements as given in patent publication US20130143798A1 (Novo Nordisk, published 2013).
Numbered stars: 1 amine (or outer) side, 2 acyl side, 3 side chain; on linkers, the order of the positions; unused ones are H or OH. Square brackets hold non-standard residues; d marks the D form. Side chains are listed from the residue outwards. Ends that are not written are not given here. * marks the point of attachment. C18 diacid = O=C(O)CCCCCCCCCCCCCCCCC(=O)*; γGlu = O=C(O)[C@H](CCC(=O)[*:2])N[*:1]; AEEA = NCCOCCOCC(=O)O; Aib = CC(C)(N)C(=O)O

B1: N^ε24-([2-[2-[2-[[2-[2-[2-[[(4S)-5-hydroxy-4-[(18-hydroxy-18-oxooctadecanoyl)amino]-5-oxopentanoyl]amino]ethoxy]ethoxy]acetyl]amino]ethoxy]ethoxy]acetyl]) … (peptide)
peptide: H[dS]QGTFTSDYSKYLAEQRARDFVK([AEEA-AEEA-γGlu-C18 diacid])WLLNT-NH2
modifications: N-terminus assumed
SMILES: CC(C)C[C@H](NC(=O)[C@H](Cc1ccc(O)cc1)NC(=O)[C@H](CCCCN)NC(=O)[C@H](CO)NC(=O)[C@H](Cc1ccc(O)cc1)NC(=O)[C@H](CC(=O)O)NC(=O)[C@H](CO)NC(=O)[C@@H](NC(=O)[C@H](Cc1ccccc1)NC(=O)[C@@H](NC(=O)CNC(=O)[C@H](CCC(N)=O)NC(=O)[C@@H](CO)NC(=O)[C@@H](N)Cc1c[nH]cn1)[C@@H](C)O)[C@@H](C)O)C(=O)N[C@@H](C)C(=O)N[C@@H](CCC(=O)O)C(=O)N[C@@H](CCC(N)=O)C(=O)N[C@@H](CCCNC(=N)N)C(=O)N[C@@H](C)C(=O)N[C@@H](CCCNC(=N)N)C(=O)N[C@@H](CC(=O)O)C(=O)N[C@@H](Cc1ccccc1)C(=O)N[C@H](C(=O)N[C@@H](CCCCNC(=O)COCCOCCNC(=O)COCCOCCNC(=O)CC[C@H](NC(=O)CCCCCCCCCCCCCCCCC(=O)O)C(=O)O)C(=O)N[C@@H](Cc1c[nH]c2ccccc12)C(=O)N[C@@H](CC(C)C)C(=O)N[C@@H](CC(C)C)C(=O)N[C@@H](CC(N)=O)C(=O)N[C@H](C(N)=O)[C@@H](C)O)C(C)C
B2: N^ε29-([2-[2-[2-[[(4S)-5-hydroxy-4-[(18-hydroxy-18-oxooctadecanoyl)amino]5-oxopentanoyl]amino]ethoxy]ethoxy]acetyl]amino]ethoxy]ethoxy]acetyl]])[Leu^27,Lys^29]G … (peptide)
peptide: HSQGTFTSDYSKYLDSRRAQDFVQWLLNK([AEEA-AEEA-γGlu-C18 diacid])
modifications: not fully specified; printed as N^ε29-([2-[2-[2-[[(4S)-5-hydroxy-4-[(18-hydroxy-18-oxooctadecanoyl)amino]5-oxopentanoyl]amino]ethoxy]ethoxy]acetyl]amino]ethoxy]ethoxy]acetyl]])[Leu^27,Lys^29]Glucagon
B3: N^ε24-([2-[2-[2-[[2-[2-[2-[[(4S)-5-hydroxy-4-[(18-hydroxy-18-oxooctadecanoyl)amino]-5-oxopentanoyl]amino]ethoxy]ethoxy]acetyl]amino]ethoxy]ethoxy]acetyl]) … (peptide)
peptide: H[Aib]QGTFTSDYSKYLDERRAQDFVK([AEEA-AEEA-γGlu-C18 diacid])WLLNT-NH2
modifications: N-terminus assumed
SMILES: CC(C)C[C@H](NC(=O)[C@H](Cc1ccc(O)cc1)NC(=O)[C@H](CCCCN)NC(=O)[C@H](CO)NC(=O)[C@H](Cc1ccc(O)cc1)NC(=O)[C@H](CC(=O)O)NC(=O)[C@H](CO)NC(=O)[C@@H](NC(=O)[C@H](Cc1ccccc1)NC(=O)[C@@H](NC(=O)CNC(=O)[C@H](CCC(N)=O)NC(=O)C(C)(C)NC(=O)[C@@H](N)Cc1c[nH]cn1)[C@@H](C)O)[C@@H](C)O)C(=O)N[C@@H](CC(=O)O)C(=O)N[C@@H](CCC(=O)O)C(=O)N[C@@H](CCCNC(=N)N)C(=O)N[C@@H](CCCNC(=N)N)C(=O)N[C@@H](C)C(=O)N[C@@H](CCC(N)=O)C(=O)N[C@@H](CC(=O)O)C(=O)N[C@@H](Cc1ccccc1)C(=O)N[C@H](C(=O)N[C@@H](CCCCNC(=O)COCCOCCNC(=O)COCCOCCNC(=O)CC[C@H](NC(=O)CCCCCCCCCCCCCCCCC(=O)O)C(=O)O)C(=O)N[C@@H](Cc1c[nH]c2ccccc12)C(=O)N[C@@H](CC(C)C)C(=O)N[C@@H](CC(C)C)C(=O)N[C@@H](CC(N)=O)C(=O)N[C@H](C(N)=O)[C@@H](C)O)C(C)C
B4: N^α([Leu^27]Glucagonyl) … (peptide)
peptide: HSQGTFTSDYSKYLDSRRAQDFVQWLLNTK
modifications: C-terminal Lys (position 30): N-epsilon acylated with the substituent printed in the name
B5: N^α([Glu^16,Gln^17,Arg^20]Glucagonyl) … (peptide)
peptide: HSQGTFTSDYSKYLDEQRARDFVQWLMNTK([AEEA-AEEA-γGlu-C18 diacid])-NH2
modifications: N-terminus assumed
SMILES: CSCC[C@H](NC(=O)[C@H](CC(C)C)NC(=O)[C@H](Cc1c[nH]c2ccccc12)NC(=O)[C@H](CCC(N)=O)NC(=O)[C@@H](NC(=O)[C@H](Cc1ccccc1)NC(=O)[C@H](CC(=O)O)NC(=O)[C@H](CCCNC(=N)N)NC(=O)[C@H](C)NC(=O)[C@H](CCCNC(=N)N)NC(=O)[C@H](CCC(N)=O)NC(=O)[C@H](CCC(=O)O)NC(=O)[C@H](CC(=O)O)NC(=O)[C@H](CC(C)C)NC(=O)[C@H](Cc1ccc(O)cc1)NC(=O)[C@H](CCCCN)NC(=O)[C@H](CO)NC(=O)[C@H](Cc1ccc(O)cc1)NC(=O)[C@H](CC(=O)O)NC(=O)[C@H](CO)NC(=O)[C@@H](NC(=O)[C@H](Cc1ccccc1)NC(=O)[C@@H](NC(=O)CNC(=O)[C@H](CCC(N)=O)NC(=O)[C@H](CO)NC(=O)[C@@H](N)Cc1c[nH]cn1)[C@@H](C)O)[C@@H](C)O)C(C)C)C(=O)N[C@@H](CC(N)=O)C(=O)N[C@H](C(=O)N[C@@H](CCCCNC(=O)COCCOCCNC(=O)COCCOCCNC(=O)CC[C@H](NC(=O)CCCCCCCCCCCCCCCCC(=O)O)C(=O)O)C(N)=O)[C@@H](C)O
B6: N^α([Glu^16,Gln^17,Ala^18,Arg^20]Glucagonyl) … (peptide)
peptide: HSQGTFTSDYSKYLDEQAARDFVQWLMNTK([AEEA-AEEA-γGlu-C18 diacid])-NH2
modifications: N-terminus assumed
SMILES: CSCC[C@H](NC(=O)[C@H](CC(C)C)NC(=O)[C@H](Cc1c[nH]c2ccccc12)NC(=O)[C@H](CCC(N)=O)NC(=O)[C@@H](NC(=O)[C@H](Cc1ccccc1)NC(=O)[C@H](CC(=O)O)NC(=O)[C@H](CCCNC(=N)N)NC(=O)[C@H](C)NC(=O)[C@H](C)NC(=O)[C@H](CCC(N)=O)NC(=O)[C@H](CCC(=O)O)NC(=O)[C@H](CC(=O)O)NC(=O)[C@H](CC(C)C)NC(=O)[C@H](Cc1ccc(O)cc1)NC(=O)[C@H](CCCCN)NC(=O)[C@H](CO)NC(=O)[C@H](Cc1ccc(O)cc1)NC(=O)[C@H](CC(=O)O)NC(=O)[C@H](CO)NC(=O)[C@@H](NC(=O)[C@H](Cc1ccccc1)NC(=O)[C@@H](NC(=O)CNC(=O)[C@H](CCC(N)=O)NC(=O)[C@H](CO)NC(=O)[C@@H](N)Cc1c[nH]cn1)[C@@H](C)O)[C@@H](C)O)C(C)C)C(=O)N[C@@H](CC(N)=O)C(=O)N[C@H](C(=O)N[C@@H](CCCCNC(=O)COCCOCCNC(=O)COCCOCCNC(=O)CC[C@H](NC(=O)CCCCCCCCCCCCCCCCC(=O)O)C(=O)O)C(N)=O)[C@@H](C)O
B7: N^ε24-([2-[2-[2-[[2-[2-[2-[[(4S)-5-hydroxy-4-[(18-hydroxy-18-oxooctadecanoyl)amino]-5-oxopentanoyl]amino]ethoxy]ethoxy]acetyl]amino]ethoxy]ethoxy]acetyl])[Glu^2 … (peptide)
peptide: HSQGTFTSDYSKYLDSRRAQEFVK([AEEA-AEEA-γGlu-C18 diacid])RLLNT-NH2
modifications: N-terminus assumed
SMILES: CC(C)C[C@H](NC(=O)[C@H](Cc1ccc(O)cc1)NC(=O)[C@H](CCCCN)NC(=O)[C@H](CO)NC(=O)[C@H](Cc1ccc(O)cc1)NC(=O)[C@H](CC(=O)O)NC(=O)[C@H](CO)NC(=O)[C@@H](NC(=O)[C@H](Cc1ccccc1)NC(=O)[C@@H](NC(=O)CNC(=O)[C@H](CCC(N)=O)NC(=O)[C@H](CO)NC(=O)[C@@H](N)Cc1c[nH]cn1)[C@@H](C)O)[C@@H](C)O)C(=O)N[C@@H](CC(=O)O)C(=O)N[C@@H](CO)C(=O)N[C@@H](CCCNC(=N)N)C(=O)N[C@@H](CCCNC(=N)N)C(=O)N[C@@H](C)C(=O)N[C@@H](CCC(N)=O)C(=O)N[C@@H](CCC(=O)O)C(=O)N[C@@H](Cc1ccccc1)C(=O)N[C@H](C(=O)N[C@@H](CCCCNC(=O)COCCOCCNC(=O)COCCOCCNC(=O)CC[C@H](NC(=O)CCCCCCCCCCCCCCCCC(=O)O)C(=O)O)C(=O)N[C@@H](CCCNC(=N)N)C(=O)N[C@@H](CC(C)C)C(=O)N[C@@H](CC(C)C)C(=O)N[C@@H](CC(N)=O)C(=O)N[C@H](C(N)=O)[C@@H](C)O)C(C)C

Biological target: glucagon receptor (UniProt P47871 26-477, limits assumed)
Test: cell-based or functional assay

Chain of glucagon receptor (P47871 26-477 limits assumed): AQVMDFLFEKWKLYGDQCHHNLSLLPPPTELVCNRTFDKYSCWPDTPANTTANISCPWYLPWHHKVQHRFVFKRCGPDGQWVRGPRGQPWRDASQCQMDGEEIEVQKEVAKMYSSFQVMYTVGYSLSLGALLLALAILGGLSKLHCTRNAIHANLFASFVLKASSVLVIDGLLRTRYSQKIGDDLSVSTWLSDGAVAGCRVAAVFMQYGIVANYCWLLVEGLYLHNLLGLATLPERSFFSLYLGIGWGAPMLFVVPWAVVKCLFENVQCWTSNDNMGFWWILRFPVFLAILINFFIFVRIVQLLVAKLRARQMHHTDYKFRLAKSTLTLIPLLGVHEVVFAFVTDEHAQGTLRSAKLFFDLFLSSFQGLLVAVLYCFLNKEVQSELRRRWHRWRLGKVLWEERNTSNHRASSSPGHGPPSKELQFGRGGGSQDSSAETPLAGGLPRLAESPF

Binder	Assay (I) Glucagon [EC50]
B1	0.137 nM
B2	0.046 nM
HSQGTFTSDYSKYLDSRRAQDFVK([AEEA-AEEA-γGlu-C18 diacid])WLLST	0.02 nM
B3	0.135 nM
HSQGTFTSDYSRYLDSRRAQDFVK([AEEA-AEEA-γGlu-C18 diacid])WLLNT	0.109 nM
HSQGTFTSDYSKYLDTRRAQDFVK([AEEA-AEEA-γGlu-C18 diacid])WLLST	0.016 nM
H[dS]QGTFTSDYSKYLDSRRAKDFVQWLMNTK-NH2 (not fully specified)	0.54 nM
HSQGTFTSDYSKYLDK([AEEA-AEEA-γGlu-C18 diacid])RRAQDFVQWLLNT	0.003 nM
B4	0.019 nM
B5	0.192 nM
H[dS]QGTFTSDYSKYLDERRAQDFVK([AEEA-AEEA-γGlu-C18 diacid])WLLNT	0.149 nM
HSQGTFTSDYSKYLDSRK([AEEA-AEEA-γGlu-C18 diacid])AQDFVQWLLNT	0.206 nM
HSQGTFTSDYSKYLDSK([AEEA-AEEA-γGlu-C18 diacid])RAQDFVQWLLNT	0.094 nM
HSQGTFTSDYSKYLDSRRAQEFVK([AEEA-AEEA-γGlu-C18 diacid])WLLNT	0.021 nM
B6	0.406 nM
B7	0.043 nM
HSQGTFTSDYSKYLDSRRAQDFVK([AEEA-AEEA-γGlu-C18 diacid])WLLTT	0.024 nM
